Assay results published in patent publication US5674835, “Papillomaviral expression inhibitors” (New England Medical Center Hospitals, Inc.).

T1: BPV-1 E2 C-terminal segment (cII-E2 fusion, pCOE2-1) (Bovine papillomavirus type 1, UniProt P03122 P03122:114-410)
T1 chain: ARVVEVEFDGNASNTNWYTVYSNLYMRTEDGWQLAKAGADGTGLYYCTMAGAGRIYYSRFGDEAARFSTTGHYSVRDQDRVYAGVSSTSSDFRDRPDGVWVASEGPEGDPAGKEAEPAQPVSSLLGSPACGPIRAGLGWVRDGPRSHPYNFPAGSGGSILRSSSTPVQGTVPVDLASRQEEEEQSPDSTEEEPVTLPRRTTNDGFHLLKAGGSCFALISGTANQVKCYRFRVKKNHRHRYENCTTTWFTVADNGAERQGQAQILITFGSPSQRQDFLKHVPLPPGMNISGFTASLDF

B1: 23 bp fragment without E2 site (dsDNA)
DNA 1: GCGCATAATCAGCTTAATTGGTG
DNA 2: CACCAATTAAGCTGATTATGCGC
B2: 23 bp URR fragment with E2 site IIIb (dsDNA)
DNA 1: CGTCAAACCGTCTTCGGTGCTC
DNA 2: GAGCACCGAAGACGGTTTGACG

How the values were obtained:
Conditions in all cases: tags: 13 N-terminal amino acids of lambda cII; partially purified from E. coli N6405; chain copies: 2
[1] = target: T1, BPV-1 E2 C-terminal segment (cII-E2 …); assay: competition; relative to N1; no consensus site
[2] = target: T1, BPV-1 E2 C-terminal segment (cII-E2 …); assay: competition; single strand did not block immunoprecipitation of dsDNA
[3] = target: T1, BPV-1 E2 C-terminal segment (cII-E2 …); assay: competition; about 1000 times more effective competitor than N2; DNA immunoprecipitation

Binder	binding result [2]	further results
B1	–	binding signal [1]: ~0.001 fold
GCGCATAATCAGCTTAATTGGTG (ssDNA) [single-stranded oligonucleotide without E2 site]	no binding	–
B2	–	binding signal [3]: ~1000 fold
CGTCAAACCGTCTTCGGTGCTC (ssDNA) [single-stranded oligonucleotide with site IIIb]	no binding	–
